Earlier results as cited in paper PMC10287730.

Target: TLR4 (Homo sapiens) (UniProt O00206)
Sequence (O00206 24-839): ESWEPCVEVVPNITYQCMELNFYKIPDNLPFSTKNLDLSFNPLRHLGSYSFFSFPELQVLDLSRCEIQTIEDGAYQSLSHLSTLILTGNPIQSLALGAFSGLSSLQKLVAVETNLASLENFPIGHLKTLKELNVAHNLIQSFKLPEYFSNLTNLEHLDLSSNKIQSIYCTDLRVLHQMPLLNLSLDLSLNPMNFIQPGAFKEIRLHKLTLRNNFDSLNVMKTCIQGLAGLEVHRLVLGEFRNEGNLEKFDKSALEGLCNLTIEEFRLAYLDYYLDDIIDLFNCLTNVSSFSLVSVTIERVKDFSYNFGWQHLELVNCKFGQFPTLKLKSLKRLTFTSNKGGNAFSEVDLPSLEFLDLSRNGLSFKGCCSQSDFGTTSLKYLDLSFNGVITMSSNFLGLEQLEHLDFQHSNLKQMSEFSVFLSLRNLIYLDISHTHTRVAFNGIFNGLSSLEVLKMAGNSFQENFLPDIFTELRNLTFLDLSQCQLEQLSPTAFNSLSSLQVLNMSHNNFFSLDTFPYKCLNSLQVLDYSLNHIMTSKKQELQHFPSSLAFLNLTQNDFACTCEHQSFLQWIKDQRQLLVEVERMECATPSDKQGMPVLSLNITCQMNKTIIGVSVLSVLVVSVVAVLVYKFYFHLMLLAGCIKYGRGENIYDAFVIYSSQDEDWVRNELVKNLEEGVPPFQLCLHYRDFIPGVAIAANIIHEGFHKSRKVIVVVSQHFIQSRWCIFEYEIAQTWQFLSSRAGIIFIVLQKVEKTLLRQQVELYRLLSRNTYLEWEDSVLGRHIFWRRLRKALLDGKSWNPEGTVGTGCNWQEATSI

Galectin-3, sequence (P17931 2-250): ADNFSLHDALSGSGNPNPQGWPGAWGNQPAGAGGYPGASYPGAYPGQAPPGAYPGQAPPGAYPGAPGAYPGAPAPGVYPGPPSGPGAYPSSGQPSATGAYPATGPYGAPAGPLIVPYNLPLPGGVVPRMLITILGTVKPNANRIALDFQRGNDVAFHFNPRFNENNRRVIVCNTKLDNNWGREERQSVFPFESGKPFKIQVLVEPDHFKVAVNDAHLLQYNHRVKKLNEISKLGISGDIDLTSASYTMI

Kd: 1000 nM
Substance: Galectin-3 (from UniProt P17931)
